Tests used:
[1] = tested on: T1, N[C@H](Cc1c[nH]c2ccccc12)C(=O)O; test: D-tryptophan degradation by tryptophanase in the presence of 3.1 M DAP, kinetic and inhibition analysis; assay type: biochemical, E. coli; conditions: other: 3.1 M DAP, 55 °C, pH 8.3
T1 construct: purchased Sigma-Aldrich Co. (St. Louis, MO, USA)
Procedure: When tryptophanase degraded L-tryptophan, all reaction mixtures included 0.2 mM of pyridoxal 5′-phosphate and 0.23 μM of tryptophanase in 100 mM potassium phosphate buffer of pH 8.3. DAP concentrations were prepared to the required concentrations of 0, 0.6, 1.2, 1.9 or 3.1 M. L-tryptophan. The reaction mixture was prepared to a concentration of 98, 108, 128, 137, 147, 167, 196, 225, 245, 294, 343, 392, 490, 680 or 980μM for kinetic analyses. Reactions were performed at 37 °C for 30 min in a Dry Thermo Unit DTU-1B (Taitec, Tokyo, Japan). […]
Initial velocities were defined by indole that formed within 1 minute after 1 mg of tryptophanase was added. […] Kcatwas determined from the reciprocal of the intercepts of these double-reciprocal plots, and the Michaelis constant Km from substrate concentration at 1/v = 0 in the absence of inhibitor. In noncompetitive inhibition, two inhibition constants of Ki (=[E][I]/[EI], E: enzyme; I: inhibitor; EI: enzyme-inhibitor complex) and Ki' (=[ES][I]/[ESI], ES: enzyme-substrate complex; ESI: enzyme-substrate-inhibitor complex) were determined from the slopes and from the intercepts, respectively. In the mixed type inhibition, Ki and Ki' were determined from x and y coordinates of the fixed point in the second quadrant.

[2] = tested on: T2, N[C@@H](Cc1c[nH]c2ccccc12)C(=O)O; test: L-tryptophan degradation by tryptophanase, kinetic and inhibition analysis (indole formation, Ehrlich reagent); assay type: biochemical, E. coli; conditions: other: L-tryptophan degradation, pH 8.3
T2 construct: purchased Sigma-Aldrich Co. (St. Louis, MO, USA)
Procedure: When tryptophanase degraded L-tryptophan, all reaction mixtures included 0.2 mM of pyridoxal 5′-phosphate and 0.23 μM of tryptophanase in 100 mM potassium phosphate buffer of pH 8.3. DAP concentrations were prepared to the required concentrations of 0, 0.6, 1.2, 1.9 or 3.1 M. L-tryptophan. The reaction mixture was prepared to a concentration of 98, 108, 128, 137, 147, 167, 196, 225, 245, 294, 343, 392, 490, 680 or 980μM for kinetic analyses. Reactions were performed at 37 °C for 30 min in a Dry Thermo Unit DTU-1B (Taitec, Tokyo, Japan). Although D-tryptophan in addition to L-tryptophan was also degraded into indole in the presence of DAP, an indole production amount from D-tryptophan was neglected at this reaction temperature and time because the catalytic efficiency for D-tryptophan was 0.3% of that for L-tryptophan. On the other hand, the reaction condition of D-tryptophan degradation differed in several ways from that of L-tryptophan degradation. Each concentration of pyridoxal 5′-phosphate and tryptophanase was 1.2 mM and 0.92μM, and additionally reaction temperature and time was 55 °C and 2 h, respectively. All the other reaction conditions were the same as in the L-tryptophan degradation.
The total volume of the reaction mixture was 2 mL per tube. The reaction was stopped by adding 2 mL of n-butanol, which was vigorously mixed and then immediately centrifuged at approximately 1,000 G for 10 min. After centrifugation, the reaction mixture was separated into two layers of butanol and aqueous solutions in which indole was equally distributed. The supernatant butanol layer was extracted to be mixed with an equal volume of Ehrlich reagent, then colored red at 60 °C for 30 min in Dry Thermo Unit. […] Tryptophanase activity was assayed in triplicate at the same substrate concentration and then averaged. Initial velocity was computed based on the averaged value.
Initial velocities were defined by indole that formed within 1 minute after 1 mg of tryptophanase was added. Then the reciprocal of (initial velocity/[E] (enzyme concentration)) (ordinate) versus the reciprocal of substrate concentration (abscissa) was drawn for each concentration of L- or D-tryptophan. These double-reciprocal plots were drawn based on the least squares method to calculate kinetic parameters. Kcatwas determined from the reciprocal of the intercepts of these double-reciprocal plots, and the Michaelis constant Km from substrate concentration at 1/v = 0 in the absence of inhibitor. In noncompetitive inhibition, two inhibition constants of Ki (=[E][I]/[EI], E: enzyme; I: inhibitor; EI: enzyme-inhibitor complex) and Ki' (=[ES][I]/[ESI], ES: enzyme-substrate complex; ESI: enzyme-substrate-inhibitor complex) were determined from the slopes and from the intercepts, respectively. In the mixed type inhibition, Ki and Ki' were determined from x and y coordinates of the fixed point in the second quadrant.

tryptophanase (Escherichia coli K-12)
Km [1]: 600 µM
kcat [1]: 0.07 s⁻¹
Km ([2]; DAP 0 M): 300 µM
kcat ([2]; DAP 0 M): 0.4 s⁻¹
kcat/Km ([2]; DAP 0 M): 1300 M⁻¹ s⁻¹
Km ([2]; DAP 0.6 M): 200 µM
kcat ([2]; DAP 0.6 M): 0.18 s⁻¹
kcat/Km ([2]; DAP 0.6 M): 900 M⁻¹ s⁻¹
Km ([2]; DAP 1.2 M): 200 µM
kcat ([2]; DAP 1.2 M): 0.15 s⁻¹
kcat/Km ([2]; DAP 1.2 M): 800 M⁻¹ s⁻¹
Km ([2]; DAP 1.9 M): 200 µM
kcat ([2]; DAP 1.9 M): 0.11 s⁻¹
kcat/Km ([2]; DAP 1.9 M): 600 M⁻¹ s⁻¹
Km ([2]; DAP 3.1 M): 200 µM
kcat ([2]; DAP 3.1 M): 0.07 s⁻¹
kcat/Km ([2]; DAP 3.1 M): 400 M⁻¹ s⁻¹

Reference: PMC4187121, “Flexible Enantioselectivity of Tryptophanase Attributable to Benzene Ring in Heterocyclic Moiety of D-Tryptophan” (Life : Open Access Journal, 2012)
